Usually Kd stands for the equilibrium constant for the complex coming apart. Low readings indicate a tighter complex, high ones a looser complex.

Where only a bound is given, the exact number is not on record here.

The values that follow come from paper PMC8765073 (mAbs, 2022).

The target of assay [1] is RBD of SARS-CoV-1 (Tor 2) (SARS-CoV-1, Tor2, UniProt P59594). The experiment in a line: BLI. On the technique in general: In BLI a coated tip is dipped into the sample, and binding shifts an interference pattern.
Assay [2] addresses RBD of pangolin CoV (PCoV-GD1) (Pangolin coronavirus GD/1/2019 …). The experiment in a line: BLI.

B1: D27LEY (antibody, V domains shown)
VH: QVQLQQSGAEVKKPGSSVKVSCKASGGTFGNWSISWVRQAPGQGLEWMGGIAPGRGEATYAQKFQGRVTITTDESTSTAYMELSSLRSEDTAVYYCARETWYTSGGMDVWGQGTTVTVSS
VL: SYELTQPPSVSVAPGKTARITCGGNNIGRKSVHWYQQKPGQAPVLVVYDDSDRPSGIPERFSGSNSGNTATLTISRVEAGDEADYYCQVYDLWSSDYVFGTGTKVEIK
With B1, the figures for the equilibrium dissociation constant (Kd) in assay [1] and in assay [2] were below 0.001 nM and 0.66 nM, respectively.
